Results from US20250066745A1, “MUTANTS AND USE THEREOF” (BGI SHENZHEN, priority 2021, published 2025).

Key:
Type in all cases: biochemical
[1] = Luminescence activity assay of purified Gaussia luciferase mutants on coelenterazine derivative ZS2; design: key to Activity of mutant relative to wild-type Gaussia luciferase without the signal peptide: ratio of mutant luminescence intensity to wild-type Gaussia luciferase; details: for Activity of mutant relative to wild-type Gaussia luciferase without the signal peptide: Substrate ZS2 (Table 16)
Method in brief: (§1)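 Readout: luminescence intensity, as ratio to signal-peptide-free wild-type enzyme. Enzyme 1 μg/mL, substrate 100 μM stock, 10 μL + 90 μL; buffer 50 mM Tris-HCl pH 8.0, 100 mM NaCl, 0.1% Tween-20.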

[2] = Substrate specificity test of combinatorial mutants: activity on coelenterazine derivative ZS26
Protocol: In this Example, the protein concentration was determined with a BCA quantitative kit (Thermo Scientific™ Pierce™ BCA Protein Assay Kit) accurately. The purified luciferase obtained in Example 5 was diluted with diluent (50 mM Tris-HCl, pH 8.0, 100 mM NaCl, 0.1% (v/v) Tween-20) to 1 μg/mL. The diluted luciferase, taken for 10 μL, was moved into a black 96-well plate, then added with 90 μL of the substrates coelenterazine, fluoro-coelenterazine or coelenterazine derivative ZS2 (purchased from Biolab) which was diluted into 100 μM with the same diluent, and the luminescence intensity of the plate was read with a self-luminescence module of a microplate reader. The mutation site of the mutant, the measured luminescence intensity, the ratio of luminescence intensities of the advantageous mutants to the wild-type Gaussia luciferase without the signal peptide having the sequence shown in SEQ ID NO: 3 are shown in Table 15. The results of catalytic activity assay of the advantageous mutants relative to the wild-type Gaussia luciferase without the signal peptide having the sequence shown in SEQ ID NO: 3 on substrate coelenterazine are shown in FIG. 6. […] The results of catalytic activity assay of the advantageous mutants relative to the wild-type Gaussia luciferase without the signal peptide having the sequence shown in SEQ ID NO: 3 on substrate fluoro-coelenterazine are shown in FIG. 7.
The new mutant library constructed in Example 7 was screened and tested for substrate specificity. Expression and purification schemes were the same as that in Example 5, and the activity assay scheme was the same as that in Example 6. The respective catalytic activities of combinatorial mutants on coelenterazine, fluoro-coelenterazine or coelenterazine derivative ZS2, and coelenterazine derivative ZS26 (purchased from BIOLAB) were assayed, and comparisons among the substrate specificities of the combinatorial mutants were based on the ratios of catalytic activities on two corresponding substrates.

[3] = Luminescence activity assay of purified Gaussia luciferase mutants on fluoro-coelenterazine; design: key to Activity of mutant relative to wild-type Gaussia luciferase without the signal peptide: ratio of mutant luminescence intensity to wild-type Gaussia luciferase; details: for Activity of mutant relative to wild-type Gaussia luciferase without the signal peptide: Substrate f-CTZ (Table 16)
Method in brief: as §1

[4] = Luminescence activity assay of purified Gaussia luciferase mutants on coelenterazine; design: key to Activity of mutant relative to wild-type Gaussia luciferase without the signal peptide: ratio of mutant luminescence intensity to wild-type Gaussia luciferase; details: for Activity of mutant relative to wild-type Gaussia luciferase without the signal peptide: Substrate CTZ (Table 16)
Method in brief: as §1

Activity of mutant relative to wild-type Gaussia luciferase without the signal peptide [1]	Activity of mutant relative to wild-type Gaussia luciferase without the signal peptide [3]	Activity of mutant relative to wild-type Gaussia luciferase without the signal peptide [4]	Molecule	other results
–	–	–	mutant E1-G12: Gaussia luciferase combinatorial mutant encoded by SEQ ID NO: 42 (protein) MKPTENNEDLNILDIAKNFIETDLDADRGKLPGKKLPLEVLKEMEANARIAGCTRGCLICLSKIKCTLKMKKFIPGRCHTYEGDKSTGQGGIGPAIVDIPEIPGFKDMEPMEQFIAQVDLCEDCTTGCLKGLANVQCSDLLKKWLPQRCATFASKIQGQVDKIKGAGGD	measured value, ZS-2 ([1]; purified combinatorial mutant, substrate coelenterazine derivative ZS2): 401271; ratios of catalytic activities on ZS2 relative to ZS26 ([1]; substrate specificity, FIG. 10, in words): significantly improved; measured value, ZS-26 ([2]; purified combinatorial mutant, substrate coelenterazine derivative ZS26): 31521; ratio of catalytic activities, ZS2/ZS26 ([2]; substrate specificity, ZS2 relative to ZS26): 12.73; ratio of catalytic activities, CTZ/ZS26 ([2]; substrate specificity, coelenterazine relative to ZS26): 21.87; ratio of catalytic activities, f-CTZ/ZS26 ([2]; substrate specificity, fluoro-coelenterazine relative to ZS26): 3.01; measured value, f-CTZ ([3]; purified combinatorial mutant, substrate fluoro-coelenterazine (f-CTZ)): 94900; measured value, CTZ ([4]; purified combinatorial mutant, substrate coelenterazine (CTZ)): 689624
0.086	0.065	0.054	F26C N27D A30V V31L A32G S33I A36V T37M L40G: Gaussia luciferase mutant (protein, SIGNAL (1)..(17), Gaussia luciferase mutant) MGVKVLFALICIAVAEAKPTENNEDCDIVVLGINFVMTDGDADRGKLPGKKLPLEVLKEMEANARKAGCTRGCLICLSHIKCTPKMKKFIPGRCHTYEGDKESAQGGIGEAIVDIPEIPGFKDLEPMEQFIAQVDLCVDCTTGCLKGLANVQCSDLLKKWLPQRCATFASKIQGQVDKIKGAGGD	–
0.067	0.095	0.066	F26L N27H V29C V31I S33V A36Q T37S L40G: Gaussia luciferase mutant (protein, SIGNAL (1)..(17), Gaussia luciferase mutant) MGVKVLFALICIAVAEAKPTENNEDLHICAIAVNFQSTDGDADRGKLPGKKLPLEVLKEMEANARKAGCTRGCLICLSHIKCTPKMKKFIPGRCHTYEGDKESAQGGIGEAIVDIPEIPGFKDLEPMEQFIAQVDLCVDCTTGCLKGLANVQCSDLLKKWLPQRCATFASKIQGQVDKIKGAGGD	–
0.027	0.040	0.038	F26G N27D V29L A30V V31I A32G S33D A36W T37S: Gaussia luciferase mutant (protein, SIGNAL (1)..(17), Gaussia luciferase mutant) MGVKVLFALICIAVAEAKPTENNEDGDILVIGDNFWSTDLDADRGKLPGKKLPLEVLKEMEANARKAGCTRGCLICLSHIKCTPKMKKFIPGRCHTYEGDKESAQGGIGEAIVDIPEIPGFKDLEPMEQFIAQVDLCVDCTTGCLKGLANVQCSDLLKKWLPQRCATFASKIQGQVDKIKGAGGD	–
0.385	0.402	0.406	F26L V29A V31I A32D S33R A36N T37E LA0P: Gaussia luciferase mutant (protein) MGVKVLFALICIAVAEAKPTENNEDLNIAAIDRNFNETDLDADRGKLPGKKLPLEVLKEMEANARKAGCTRGCLICLSHIKCTPKMKKFIPGRCHTYEGDKESAQGGIGEAIVDIPEIPGFKDLEPMEQFIAQVDLCVDCTTGCLKGLANVQCSDLLKKWLPQRCATFASKIQGQVDKIKGAGGD	–
0.106	0.121	0.098	F26N V29S A30D S33D A36T T37A L40G: Gaussia luciferase mutant (protein, SIGNAL (1)..(17), Gaussia luciferase mutant) MGVKVLFALICIAVAEAKPTENNEDNNISDVADNFTATDGDADRGKLPGKKLPLEVLKEMEANARKAGCTRGCLICLSHIKCTPKMKKFIPGRCHTYEGDKESAQGGIGEAIVDIPEIPGFKDLEPMEQFIAQVDLCVDCTTGCLKGLANVQCSDLLKKWLPQRCATFASKIQGQVDKIKGAGGD	–
0.166	0.141	0.203	F26C N27D V29L A32V A36I T37A L40I: Gaussia luciferase mutant (protein, SIGNAL (1)..(17), Gaussia luciferase mutant) MGVKVLFALICIAVAEAKPTENNEDCDILAVVSNFIATDIDADRGKLPGKKLPLEVLKEMEANARKAGCTRGCLICLSHIKCTPKMKKFIPGRCHTYEGDKESAQGGIGEAIVDIPEIPGFKDLEPMEQFIAQVDLCVDCTTGCLKGLANVQCSDLLKKWLPQRCATFASKIQGQVDKIKGAGGD	–
0.026	0.080	0.016	F26I N27D V29A A30D V31I S33K A36N T37K L40P: Gaussia luciferase mutant (protein, SIGNAL (1)..(17), Gaussia luciferase mutant) MGVKVLFALICIAVAEAKPTENNEDIDIADIAKNFNKTDPDADRGKLPGKKLPLEVLKEMEANARKAGCTRGCLICLSHIKCTPKMKKFIPGRCHTYEGDKESAQGGIGEAIVDIPEIPGFKDLEPMEQFIAQVDLCVDCTTGCLKGLANVQCSDLLKKWLPQRCATFASKIQGQVDKIKGAGGD	–
0.027	0.025	0.031	F26G N27Y A30G V31L A32G S33L A36Y T37V L40E: Gaussia luciferase mutant (protein, SIGNAL (1)..(17), Gaussia luciferase mutant) MGVKVLFALICIAVAEAKPTENNEDGYIVGLGLNFYVTDEDADRGKLPGKKLPLEVLKEMEANARKAGCTRGCLICLSHIKCTPKMKKFIPGRCHTYEGDKESAQGGIGEAIVDIPEIPGFKDLEPMEQFIAQVDLCVDCTTGCLKGLANVQCSDLLKKWLPQRCATFASKIQGQVDKIKGAGGD	–
1.231	0.583	1.470	F26I V29A A30D A32V S33K T37E L40A: Gaussia luciferase mutant (protein, SIGNAL (1)..(17), Gaussia luciferase mutant) MGVKVLFALICIAVAEAKPTENNEDINIADVVKNFAETDADADRGKLPGKKLPLEVLKEMEANARKAGCTRGCLICLSHIKCTPKMKKFIPGRCHTYEGDKESAQGGIGEAIVDIPEIPGFKDLEPMEQFIAQVDLCVDCTTGCLKGLANVQCSDLLKKWLPQRCATFASKIQGQVDKIKGAGGD	–
0.080	0.104	0.088	F26G N27Y V29C A30V V31L S33G A36R T37A L40A: Gaussia luciferase mutant (protein, SIGNAL (1)..(17), Gaussia luciferase mutant) MGVKVLFALICIAVAEAKPTENNEDGYICVLAGNFRATDADADRGKLPGKKLPLEVLKEMEANARKAGCTRGCLICLSHIKCTPKMKKFIPGRCHTYEGDKESAQGGIGEAIVDIPEIPGFKDLEPMEQFIAQVDLCVDCTTGCLKGLANVQCSDLLKKWLPQRCATFASKIQGQVDKIKGAGGD	–
